Test results taken from the supplement of paper PMC10724198.
± gives the standard deviation of the averaged measurements.

test system: Saccharomyces cerevisiae; assay: protein stability index of tFT-peptide fusion (C-terminal peptide) (PSI (0-1 scale)); higher = more stable (slower turnover); conditions: genetic background: das1 deletion; temperature: 30 C
Protocol: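 MPS profiling in S. cerevisiae of the yeast C-terminome library: the last 12 aa of each annotated ORF are fused to the C-terminus of a sfGFP-mCherry timer, after a GGGS linker. Cells are FACS-sorted into 8 mCherry/sfGFP bins and deep-sequenced. PSI runs from 0 (unstable) to 1 (stable); wild type and das1Δ backgrounds, two technical replicates each.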

Sequence	protein stability index
SPYLKHLDSRKQ [CTS2 C-terminal 12 aa]	0.722 ± 0.019
SQEPQYKLFRGR [MRPL16 C-terminal 12 aa]	0.6988 ± 0.0014
SQNELRFEERLL [INO1 C-terminal 12 aa]	0.683 ± 0.021
SRIKWHVGTAYS [HHY1 C-terminal 12 aa]	0.6943 ± 0.0031
SRVGRKVATLDQ [YAT2 C-terminal 12 aa]	0.6994 ± 0.0069
SSKGFFSKLGCC [YCK2 C-terminal 12 aa]	0.692 ± 0.0099
SSSNKSQRNGRY [AIR1 C-terminal 12 aa]	0.712 ± 0.011
SSSSTSVNKTLD [VIP1 C-terminal 12 aa]	0.734 ± 0.04
SSTTEETILVRK [RKM1 C-terminal 12 aa]	0.689 ± 0.023
STCIYLYTHNSM [YBR206W C-terminal 12 aa]	0.672 ± 0.027
STHIDHDKFSFF [CDC8 C-terminal 12 aa]	0.7087 ± 0.0024
STQHKSTTSFTQ [TGL4 C-terminal 12 aa]	0.716 ± 0.035
STTTVIQGEINK [LRG1 C-terminal 12 aa]	0.671 ± 0.049
SVESLMTQQDVE [BIO4 C-terminal 12 aa]	0.691 ± 0.011
SVLKRVRKLFGE [VMA7 C-terminal 12 aa]	0.712 ± 0.004
SWETKLKQNILE [CSN9 C-terminal 12 aa]	0.7156 ± 0.0054
SWISNNTNVPKK [ARF3 C-terminal 12 aa]	0.6958 ± 0.0013
SYFNTIMHNCKP [SET4 C-terminal 12 aa]	0.72482 ± 0.00043
TAFLNKVYKRSK [ERG20 C-terminal 12 aa]	0.692 ± 0.007
TANKVELMANIV [MAK31 C-terminal 12 aa]	0.6683 ± 0.0035
TASFAGSKKTFD [NSR1 C-terminal 12 aa]	0.706 ± 0.023

Sequence	protein stability index
TDDKEKLLKTLK [ACC1 C-terminal 12 aa]	0.698 ± 0.016
TDFENPNFRYTL [DAL5 C-terminal 12 aa]	0.756 ± 0.039
TDLPKWAQLDNS [PUS6 C-terminal 12 aa]	0.729 ± 0.028
TFCVYENLKHRL [FLX1 C-terminal 12 aa]	0.741 ± 0.019
TGGCSSSKFSLS [SKN1 C-terminal 12 aa]	0.692 ± 0.021
THFFSIEWAGFG [SEN34 C-terminal 12 aa]	0.7116 ± 0.0045
TIAAGKISEITQ [HBS1 C-terminal 12 aa]	0.7292 ± 0.0066
TIEEVKIPGLDI [MRPL50 C-terminal 12 aa]	0.701 ± 0.0088
TISNWIQETKEV [STO1 C-terminal 12 aa]	0.70591 ± 0.00011
TKARTLGEGSVN [YDR476C C-terminal 12 aa]	0.686 ± 0.032
TKGEVATKPASY [MGA1 C-terminal 12 aa]	0.702 ± 0.014
TKHTPKYLLNTI [YNL179C C-terminal 12 aa]	0.6926 ± 0.0048
TKRLRKNKCIIM [RHO4 C-terminal 12 aa]	0.743 ± 0.0024
TKYKTVTVTAKT [YMR244W C-terminal 12 aa]	0.652 ± 0.014
TNGITTERHKKK [NTG2 C-terminal 12 aa]	0.714 ± 0.0084
TNTVPATSASSK [RGC1 C-terminal 12 aa]	0.68862 ± 0.00043
TNWGQHKTVQNT [PPE1 C-terminal 12 aa]	0.698 ± 0.024
TNYEVTDTYTNS [SOM1 C-terminal 12 aa]	0.7107 ± 0.0011
TPRLYTDRSRDF [RPB2 C-terminal 12 aa]	0.743 ± 0.0033
TPSEDDDGAVEI [LSM3 C-terminal 12 aa]	0.688 ± 0.0068
TPTDSTPTKKDI [LAC1 C-terminal 12 aa]	0.6941 ± 0.0027

Sequence	protein stability index
TRKKGGRRGRRL [RPS14A C-terminal 12 aa]	0.711 ± 0.011
TRMSSPPPSTSS [SET2 C-terminal 12 aa]	0.695 ± 0.023
TSDQKNKRTQFS [RPB9 C-terminal 12 aa]	0.6969 ± 0.0066
TVFETLTLHSAN [JSN1 C-terminal 12 aa]	0.725 ± 0.024
TVGYGILKVMGF [PHO91 C-terminal 12 aa]	0.659 ± 0.012
TVSLPSRYSRYN [ALR2 C-terminal 12 aa]	0.6976 ± 0.0014
VAKKRLSSRSKP [YNL162W-A C-terminal 12 aa]	0.715 ± 0.05
VARYKMVSKRIW [EMP65 C-terminal 12 aa]	0.717 ± 0.011
VDIPVDVKKLQI [BUL2 C-terminal 12 aa]	0.723 ± 0.035
VDMKWGSFPIFQ [YPR1 C-terminal 12 aa]	0.7256 ± 0.0028
VDSEGQIRYAKE [YCR087C-A C-terminal 12 aa]	0.673 ± 0.028
VEIPTVESTKSG [RNA14 C-terminal 12 aa]	0.696 ± 0.021
VEPVYLCASLSL [YCR047W-A C-terminal 12 aa]	0.666 ± 0.027
VFEVFSRMDMLL [VPS74 C-terminal 12 aa]	0.7149 ± 0.0058
VFGGCATTWIVL [ATS1 C-terminal 12 aa]	0.6971 ± 0.0038
VFLELKKAQRWA [API2 C-terminal 12 aa]	0.703 ± 0.019
VFNDIFRLNYSA [NTF2 C-terminal 12 aa]	0.7108 ± 0.0032
VFPETDSIFEPV [RAF1 C-terminal 12 aa]	0.733 ± 0.022
VGKKLETFKKTN [WBP1 C-terminal 12 aa]	0.717 ± 0.0088
VGRHSSRLMCPG [YBR126W-B C-terminal 12 aa]	0.6932 ± 0.0053
VHAENTTLREIL [CDC50 C-terminal 12 aa]	0.706 ± 0.036

Sequence	protein stability index
VHLEKKKDEDKK [UBX7 C-terminal 12 aa]	0.67376 ± 4e-05
VIIVPIAVHFSR [SNC1 C-terminal 12 aa]	0.561 ± 0.024
VILSETVVILYY [YKR032W C-terminal 12 aa]	0.346 ± 0.014
VKFGLQMAYLQS [YMR007W C-terminal 12 aa]	0.7023 ± 0.005
VLGDVIKIAQRL [HOM6 C-terminal 12 aa]	0.728 ± 0.008
VLSNNVPYTQPR [RCH1 C-terminal 12 aa]	0.703 ± 0.029
VLYIILYYIILY [YGL024W C-terminal 12 aa]	0.282 ± 0.02
VMQELRKLKNAM [GLO4 C-terminal 12 aa]	0.709 ± 0.018
VMSLYNLACKYI [SAM37 C-terminal 12 aa]	0.797 ± 0.013
VNELVELMTQSA [SEC18 C-terminal 12 aa]	0.675 ± 0.015
VNERSHDVKFTK [YIL165C C-terminal 12 aa]	0.686 ± 0.006
VNHSFEFNDVLQ [IFH1 C-terminal 12 aa]	0.686 ± 0.014
VPGGKKTPTEAL [LSM5 C-terminal 12 aa]	0.6817 ± 0.0014
VPQLHSFIAKEQ [RMD9 C-terminal 12 aa]	0.699 ± 0.017
VPSLLILSVFFS [YPS3 C-terminal 12 aa]	0.27 ± 0.03
VQEWEVLGRVDV [CPD1 C-terminal 12 aa]	0.724 ± 0.014
VQQMVEMQGKMR [SGM1 C-terminal 12 aa]	0.71134 ± 0.00034
VSDSSYDEYSNE [SYT1 C-terminal 12 aa]	0.679 ± 0.021
VSKTYEEHIETV [JEN1 C-terminal 12 aa]	0.688 ± 0.023
